Legend:
[1] = mouse, in vivo
[2] = mouse, in vivo; remark: listed apart in the source
[3] = mouse, in vivo; remark: listed apart in the source
[4] = mouse, in vivo, iv
[5] = mouse, in vivo; remark: listed apart in the source

| Substance | increase in plasma AUC at 52 weeks [1] | plasma AUC of 125I-Aβ40 relative to 125I-Aβ42 [1] | decrease in PS values in various brain regions at 52 weeks [2] | PS product in the whole brain, WT versus APP/PS1 mice [3] | PS product in the whole brain, lower in APP/PS1 mice compared to WT mice [3] | decrease in PS values at 52 weeks [3] | increase in PS values in various brain regions at 52 weeks [2] | decrease in PS values at various brain regions at 24 weeks [3] | decrease in brain influx clearance (Ki) at 104 weeks compared to 12 weeks [4] | decrease in PS products at various brain regions at 24 weeks compared to 8 weeks [5] |
| --- | --- | --- | --- | --- | --- | --- | --- | --- | --- | --- |
| ^125I-Aβ40: custom synthesized amyloid-β 40 peptide, soluble form, radiolabeled with 125I by the chloramine-T procedure | ~ 7 fold | ~ 12 fold | ~ 4 fold | no differences | ~ 1.5 fold | ~ 1.5 fold | – | – | – | – |
| ^125I-Aβ42: custom synthesized amyloid-β 42 peptide, soluble form, radiolabeled with 125I by the chloramine-T procedure | – | – | – | no significant differences | – | – | ~ 1.5 fold | ~ 1.5 fold | – | – |
| ^125I-insulin: human insulin (Sigma-Aldrich) radiolabeled with 125I by the chloramine-T procedure | – | – | – | – | – | – | – | – | ~ 2 fold | ~ 5 fold |
